Laboratory results: PMC5125619 (Nature, 2016)

Experiments:
[1] = molecular target: FAM-labelled RBBP5 peptide (residues 330–363) mixed with ASH2L(SPRY) (human) (UniProt Q15291); assay: fluorescence polarisation
[2] = molecular target: MLL3 SET domain (human, UniProt Q8NEZ4 4757-4911); assay: crystal structure
Sequence of MLL3 SET domain (human, UniProt Q8NEZ4 4757-4911) (Q8NEZ4 4757-4911): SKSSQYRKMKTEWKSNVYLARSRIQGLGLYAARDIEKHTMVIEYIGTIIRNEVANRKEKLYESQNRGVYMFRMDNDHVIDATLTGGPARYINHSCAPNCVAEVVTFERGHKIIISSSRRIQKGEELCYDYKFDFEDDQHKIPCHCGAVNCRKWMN

Sequence of MLL1 SET domain (Q03164 3829-3945): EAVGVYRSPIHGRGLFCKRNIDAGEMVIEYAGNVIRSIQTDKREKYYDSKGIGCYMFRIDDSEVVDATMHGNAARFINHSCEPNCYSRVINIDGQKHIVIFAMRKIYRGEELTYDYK
Sequence of MLL3 SET domain (from UniProt Q8NEZ4 4757-4911) (domain or fragment) (Q8NEZ4 4757-4911): as the sequence (Q8NEZ4 4757-4911) above

Row | Kd [1] | binding result [2] | Molecule
1 | > 100 µM |  | MLL1 SET domain (from UniProt Q03164 3829-3945) (domain or fragment)
2 | 0.1 µM |  | MLL3 SET domain (from UniProt Q8NEZ4 4757-4911) (domain or fragment)
3 |  | binds | ARTKQTARK [H3 peptide (H3 residues 1–9)]
